Type in all cases: binding
For experiment [1], the target named is T1, menin^WT bound to FLSN-MLL1^4-43 (Homo sapiens, UniProt O00255).
T1 construct: Full-length human menin was expressed in BL21(DE3) cells; thioredoxin-His6 (cleaved yes); made in house; host or cells: E. coli BL21(DE3); probe peptide from GenScript
T1 sequence (O00255 1-610): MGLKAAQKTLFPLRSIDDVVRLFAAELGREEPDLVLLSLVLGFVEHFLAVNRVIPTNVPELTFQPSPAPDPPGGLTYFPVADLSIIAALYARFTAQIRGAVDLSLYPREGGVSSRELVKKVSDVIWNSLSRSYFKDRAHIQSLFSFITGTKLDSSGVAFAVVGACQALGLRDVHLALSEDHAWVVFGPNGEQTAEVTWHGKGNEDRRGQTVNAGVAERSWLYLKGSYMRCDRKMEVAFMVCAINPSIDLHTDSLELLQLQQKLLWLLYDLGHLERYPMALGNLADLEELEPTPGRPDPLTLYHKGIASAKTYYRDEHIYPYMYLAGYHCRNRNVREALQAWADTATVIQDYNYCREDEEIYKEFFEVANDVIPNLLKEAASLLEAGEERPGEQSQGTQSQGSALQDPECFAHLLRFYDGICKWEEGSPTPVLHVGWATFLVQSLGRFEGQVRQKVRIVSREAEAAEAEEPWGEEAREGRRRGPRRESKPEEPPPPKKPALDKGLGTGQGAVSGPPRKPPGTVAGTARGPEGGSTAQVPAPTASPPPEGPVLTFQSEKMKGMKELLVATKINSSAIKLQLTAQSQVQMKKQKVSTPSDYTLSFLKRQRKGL
Kind of experiment: FP competition, displacement of FLSN-MLL1^4-43 from menin^WT. On the procedure: (§1) FP competition experiments used FLSN-MLL1^4-43 at 4 nM and menin at 4 nM against varying concentrations of unlabeled MLL1 peptides in FP buffer for IC50 determination. Protein-peptide complexes were incubated for 1 h before unlabeled peptide competitors were added to ensure complete binding. Unlabeled peptide competitors were incubated with the protein-peptide complexes for 3 h before measurement using the PHERAstar microplate reader ([25]). Experiments with Revumenib were run with the same steps and conditions but used 5% DMSO in the final solution. Kd and IC50 values were calculated using GraphPad Prism 10 by plotting mP values measured for each protein/MLL1 peptide or Revumenib as a function of protein/MLL1 peptide (or Revumenib) concentration ([25]). All FP binding and competition experiments were run in triplicate.

Experiment [2] has as its target T2, menin^G331R bound to FLSN-MLL1^4-43 (Homo sapiens, UniProt O00255, G326R).
T2 construct: The gene encoding full-length human menin was cloned into a pET32a expression vector; thioredoxin-His6 (cleaved yes); made in house; host or cells: E. coli BL21(DE3); probe peptide from GenScript
T2 sequence (O00255 1-610 G326R): T1 sequence (O00255 1-610) with G326R
Nature of the experiment: FP competition, displacement of FLSN-MLL1^4-43 from menin^G331R. Here is the method:
as §1

Experiment [3] concerns the target T3, menin^G331D-FLSN-MLL1^4-43 (Homo sapiens, UniProt O00255, G326D).
T3 construct: The gene encoding full-length human menin was cloned into a pET32a expression vector; thioredoxin-His6 (cleaved yes); made in house; host or cells: E. coli BL21(DE3); probe peptide from GenScript
T3 sequence (O00255 1-610 G326D): T1 sequence (O00255 1-610) with G326D
Nature of the experiment: FP competition, displacement of FLSN-MLL1^4-43 from menin^G331D. On the procedure: To better understand the mechanism of MLL1 binding with menin mutants, we performed FP competition experiments using FLSN-MLL1^4-43 as a fluorescent probe for competitive displacement by MLL1 peptides ([25]). First, we tested competition with MLL1^160 and found very similar IC50 values for wild-type menin and the three mutants M327I, T349M, and G331R, ranging between 4.1 and 8 nM (Fig. 3, A and B). […] We have hypothesized that the lack of competition with MLL1 for the menin^G331D mutant might result from a much slower dissociation rate of the menin^G331D–MLL1 complex, and to evaluate this we performed time-dependent competition experiments with MLL1^160 and MLL1^46. Standard conditions in the FP assay include 3 h incubations of the menin-FLSN-MLL1^4-43 complex with competitors.
as §1

The mark [4] stands for this setting: FP competition with MLL1 fragments, 3 h incubation, N = 3, Fig. 3B, read-out: WT IC50.
The mark [5] stands for this setting: FP competition with MLL1 fragments, 3 h incubation, N = 3, Fig. 3B, read-out: G331R IC50.
[6] abbreviates: FP competition with MLL1 fragments, 3 h incubation, N = 3, Fig. 3B, read-out: G331D IC50.
Setting [7] is: time-dependent competition, 3 h, Fig. 3D, read-out: 3h IC50.
The mark [8] stands for this setting: time-dependent competition, 24 h, Fig. 3D, read-out: 24h IC50.
[9] abbreviates: time-dependent competition, 48 h, Fig. 3D, read-out: 48h IC50.
[10] abbreviates: time-dependent competition, 72 h, Fig. 3D, read-out: 72h IC50.

Numbering of substitutions follows the chain as printed. Where two headings read alike, the source gives them in different places. Some results are limits rather than exact numbers.

One may read the IC50 as the concentration needed to halve the response being measured. Turning to `CCN(C(=O)c1cc(F)ccc1Oc1cncnc1N1CC2(CCN(C[C@H]3CC[C@H](NS(=O)(=O)CC)CC3)CC2)C1)C(C)C` [Revumenib, reference compound], the IC50 worked out at 5.7 nM in experiment [1] (FP competition, 5% DMSO, 3 h, N = 3, Fig. 4A, read-out: IC50 (nM), menin variant WT) and 30 ± 2.5 nM in experiment [2] (FP competition, 5% DMSO, 3 h, N = 3, Fig. 4A, read-out: IC50 (nM), menin variant G331R). Besides, in experiment [2] (versus wild-type IC50), the “reduction of activity against G331R” value came out at 5 fold. Moreover, in experiment [3] (FP competition, 5% DMSO), the “activity for the G331D variant” value is on record as “no activity”.
For “MLL1^46: recombinant MLL1 fragment spanning amino acids 1–46, containing MBM1 and MBM2 (MAHSARWRFPARPGTTGGGGGGGRRGLGGAPRQRVPALLLPPGPPV; The printed 'Cys2' is Cys5 in the entry (peptide S4-A5-R6); Trx-His6 tag cl)”, the IC50 is 1.6 ± 0.7 nM in experiment [1] (setting [4]); 3.1 ± 0.7 nM in experiment [2] (setting [5]); over 200 nM in experiment [3] (setting [6]); over 200 nM in experiment [3] (setting [7]); 0.87 ± 0.8 nM in experiment [3] (setting [8]); 1.1 ± 0.6 nM in experiment [3] (setting [9]). The IC50 in experiment [3] (setting [10]) came to 1 ± 0.2 nM.

B1: MLL1^160: N-terminal 160 amino acids of human MLL1, Cys2 mutated to alanine, recombinant (protein)
chain: MAHSARWRFPARPGTTGGGGGGGRRGLGGAPRQRVPALLLPPGPPVGGGGPGAPPSPPAVAAAAAAAGSSGAGVPGGAAAASAASSSSASSSSSSSSSASSGPALLRVGPGFDAALQVSAAIGTNLRRFRAVFGESGGGGGSGEDEQFLGFGSDEEVRVR
modifications: The printed 'Cys2' is the single N-terminal cysteine, Cys5 in the entry (peptide S4-A5-R6); Trx-His6 tag cleaved
With B1, the IC50 in experiment [1] (setting [4]) was 4.1 ± 1.3 nM; in experiment [2] (setting [5]), 8 ± 0.5 nM; in experiment [3] (24 to 72 h incubations, read-out: IC50 values, range over time points) it was 4.7 to 10.9 nM; in experiment [3] (setting [6]), over 200 nM; in experiment [3] (setting [7]) it was over 200 nM; in experiment [3] (setting [8]) it was 4.73 ± 0.8 nM. Also, the IC50 worked out at 10.9 ± 6.2 nM in experiment [3] (setting [9]) and 7.9 ± 0.5 nM in experiment [3] (setting [10]).

(Values after paper PMC11490872, “Drug-resistant menin variants retain high binding affinity and interactions with MLL1” (The Journal of Biological Chemistry, 2024).)
